{"source": "paper PMC8918354", "target": "iron superoxide dismutase SodB from Acinetobacter sp. Ver3 (Acinetobacter sp. Ver3)", "assay": "crystal structure; space group C222(1), one molecule per asymmetric unit, dimer formed by crystallographic symmetry; 1.34 Å; crystals grown at 20 °C from 10 mg/ml protein with 1 mM FMN in the mother liquor", "data": [{"substance": "iron superoxide dismutase SodB from Acinetobacter sp. Ver3 (enzyme)", "values": [{"measurement": "stoichiometry N", "value": 2}]}]}
